Data taken from patent US20190367612A1 (Daiichi Sankyo, published 2019).

What was measured:
[1] = target: T1, human GPRC5D amino-terminal peptide MYKDCIESTGDYFLLCDAEGPWGIILE-K(Biotin)-NH2, having an intramolecular … (human, C-terminal lysine carrying biotin, C-terminal amide; intramolecularly formed disulfide bond); test: ELISA, immobilised biotinylated peptide
T1 construct: Peptide Institute synthetic peptide; also called amino-terminal peptide of biotinylated human GPRC5D (disulfide bond present)
T1 peptide: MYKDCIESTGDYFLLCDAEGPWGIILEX
Excerpt: (§1) Epitopes bound by the obtained rat anti-GPRC5D antibodies (2A4, 2B1, and 7B4) were identified using a human GPRC5D amino-terminal peptide […](Biotin)-NH₂ (Sigma-Aldrich Corp.) (SEQ ID NO: 1 of the Sequence Listing; FIG. 2) having a biotinylated carboxy-terminal peptide and lacking an intramolecularly formed disulfide bond, and a human GPRC5D amino-terminal peptide […]-K(Biotin)-NH₂ (Peptide Institute, Inc.) (SEQ ID NO: 2 of the Sequence Listing; FIG. 3) having a lysine-containing biotinylated carboxy terminus and having an intramolecularly formed disulfide bond. Each peptide diluted with PBS was added to Nunc Immobilizer (Thermo Fisher Scientific Inc.), and the plate was left standing at room temperature for 1 hour. After washing three times with PBST, […] containing 1% BSA was added thereto, and the plate was left standing at room temperature for 1 hour. After washing three times with PBST, each rat anti-GPRC5D antibody (2A4, 2B1, and 7B4) prepared in Example 1)-7 and diluted to 0.1 ng/mL to 1 μg/mL with PBS was added thereto, and the plate was left standing at room temperature for 1 hour. After washing three times with PBST, Anti-Rat IgG, HRP-Linked Whole Ab Goat (GE Healthcare Bio-Sciences Corp.) diluted 500-fold with PBS was added thereto, and the plate was left standing at room temperature for 1 hour. After washing three times with PBST, SuperSignal™ ELISA Pico Chemiluminescent Substrate (Thermo Fisher Scientific Inc.) was added thereto, and the luminescence was measured using a plate reader (ENVISION; PerkinElmer, Inc.).

[2] = target: T2, human GPRC5D amino-terminal peptide …(Biotin)-NH2, lacking an intramolecular disulfide bond (human, biotinylated carboxy terminus, C-terminal amide; no intramolecularly formed disulfide bond); test: ELISA, immobilised biotinylated peptide
T2 construct: Sigma-Aldrich synthetic peptide; also called amino-terminal peptide of human GPRC5D (disulfide bond absent)
T2 peptide: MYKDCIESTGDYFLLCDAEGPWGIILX
Excerpt: as §1

human GPRC5D [3] = target: T3, human GPRC5D (human, UniProt Q9NZD1 1-345); test: flow cytometry, KMS-34 cells
T3 construct: whole, on cells; also called hGPRC5D; G-protein coupled receptor family C group 5 member D

human GPRC5D [4] = target: T3, human GPRC5D; test: flow cytometry, KHM-1B cells
Protocol: Human multiple myeloma cell line KHM-1B cells (JCRB Cell Bank) expressing GPRC5D were adjusted to a concentration of 5×10⁶ cells/mL with PBS containing 5% FBS, inoculated in an amount of 100 μL/well to a 96-well U-bottomed microplate, and centrifuged to remove a supernatant. Each rat anti-GPRC5D antibody (2A4, 2B1, and 7B4) adjusted to 0.32 ng/mL to 10 μg/mL in Example 1)-7 was added thereto in an amount of 100 μL/well, and the plate was left standing at 4° C. for 1 hour. The cells were washed twice with PBS containing 5% FBS. Then, PE Goat Anti-Rat Ab (Becton, Dickinson and Company) diluted 100-fold with PBS containing 5% FBS was added thereto at a concentration of 100 μL/well, and the plate was left standing at 4° C. for 1 hour. The cells were washed twice with PBS containing 5% FBS and then resuspended in PBS containing 5% FBS, followed by detection using a flow cytometer (FACSCanto™ II; Becton, Dickinson and Company). The data was analyzed using Flowjo (Tree Star, Inc.). The PE fluorescence intensity of the cell fraction was plotted to a histogram, and the mean fluorescence intensity (MFI) was calculated.

- Kd (human GPRC5D [3]): 1.4 nM
- MFI (max) (human GPRC5D [3]): 2060
- Kd (human GPRC5D [4]): 0.5 nM
- MFI (max) (human GPRC5D [4]): 1150
B1: rat anti-GPRC5D antibody 2A4 (antibody, V domains shown)
VH: QVQLQQSGAELAKPGTSVKLSCKASGYTFTSYYIYWVKQRPGQGLEWIGYVYPGYGGTYYSDKFKGKATFTADTSSSTAYMLLGSLTPEDSAYYFCARRKGIIRGPGYFDYWGQGVMVTVSS
VL: DIQMTQSPASLSASLGETVSIECLASEGISNSLAWYQQKPGKSPQLLIYGASSLQDGVPSRFSGSGSGTQYSLKISGMQPEDEGLYYCQQGYKYPPTFGGGTKLELK
notes: Rat IgG2b, kappa chain
- binding result [1]: no binding (tested: 0.1 ng/mL to 1 µg/mL)
- binding result [2]: no binding (tested: 0.1 ng/mL to 1 µg/mL)
